The source of these data is publication PMC9930398, “SlMYB1 regulates the accumulation of lycopene, fruit shape, and resistance to Botrytis cinerea in tomato”.

B1: SlPR5pro probe (dsDNA)
DNA 1: TCCGTTCTCCGTTCTCCGTTC
DNA 2: GAACGGAGAACGGAGAACGGA
B2: SlPSY2pro probe (dsDNA)
DNA 1: TCGGTTATCGGTTATCGGTTA
DNA 2: TAACCGATAACCGATAACCGA
B3: SlLCY1pro probe (dsDNA)
DNA 1: ACCGTTCACCGTTCACCGTTC
DNA 2: GAACGGTGAACGGTGAACGGT

The target in this data set is SlMYB1-GST (Solanum lycopersicum, UniProt A0A3Q7I0H7 1-380). Briefly: EMSA; EMSA/Gel-Shift kit (Biyuntian/Beyotime) per instructions; buffer, salt, pH and temperature not stated. Conditions: protein: recombinant; tags: GST (pGEX-4T-1, N-terminal by vector); label: biotin; blunt.
Sequence of SlMYB1-GST (A0A3Q7I0H7 entry or part of it): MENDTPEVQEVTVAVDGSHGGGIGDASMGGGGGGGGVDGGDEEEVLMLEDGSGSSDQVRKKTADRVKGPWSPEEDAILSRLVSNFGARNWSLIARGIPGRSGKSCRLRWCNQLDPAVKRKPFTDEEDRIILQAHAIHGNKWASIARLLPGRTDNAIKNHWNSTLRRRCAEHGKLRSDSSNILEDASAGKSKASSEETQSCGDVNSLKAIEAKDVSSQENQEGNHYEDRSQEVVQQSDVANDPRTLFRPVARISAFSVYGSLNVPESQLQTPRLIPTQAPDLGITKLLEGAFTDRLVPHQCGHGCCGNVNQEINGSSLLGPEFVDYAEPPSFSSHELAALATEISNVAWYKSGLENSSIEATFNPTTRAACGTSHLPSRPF
As for B1, the binding result is “binds”. In the case of B2, the binding result is given as “binds”. Next, B3: “binds”.
